# In publication PMC11988184:
# B1: c-Myc tagged MIRO1 (mitochondrial rho GTPase 1), wild type [not stated] / MCU (mitochondrial Ca2+ uniporter), endogenous in HEK cells [human (endogenous in HEK)] (parent)
# chain 1: MKKDVRILLVGEPRVGKTSLIMSLVSEEFPEEVPPRAEEITIPADVTPERVPTHIVDYSEAEQSDEQLHQEISQANVICIVYAVNNKHSIDKVTSRWIPLINERTDKDSRLPLILVGNKSDLVEYSSMETILPIMNQYTEIETCVECSAKNLKNISELFYYAQKAVLHPTGPLYCPEEKEMKPACIKALTRIFKISDQDNDGTLNDAELNFFQRICFNTPLAPQALEDVKNVVRKHISDGVADSGLTLKGFLFLHTLFIQRGRHETTWTVLRRFGYDDDLDLTPEYLFPLLKIPPDCTTELNHHAYLFLQSTFDKHDLDRDCALSPDELKDLFKVFPYIPWGPDVNNTVCTNERGWITYQGFLSQWTLTTYLDVQRCLEYLGYLGYSILTEQESQASAVTVTRDKKIDLQKKQTQRNVFRCNVIGVKNCGKSGVLQALLGRNLMRQKKIREDHKSYYAINTVYVYGQEKYLLLHDISESEFLTEAEIICDVVCLVYDVSNPKSFEYCARIFKQHFMDSRIPCLIVAAKSDLHEVKQEYSISPTDFCRKHKMPPPQAFTCNTADAPSKDIFVKLTTMAMYPHVTQADLKSSTFWLRASFGATVFAVLGFAMYKALLKQR
# chain 2: VHQRIASWQNLGAVYCSTVVPSDDVTVVYQNGLPVISVRLPSRRERCQFTLKPISDSVGVFLRQLQEEDRGIDRVAIYSPDGVRVAASTGIDLLLLDDFKLVINDLTYHVRPPKRDLLSHENAATLNDVKTLVQQLYTTLCIEQHQLNKERELIERLEDLKEQLAPLEKVRIEISRKAEKRTTLVLWGGLAYMATQFGILARLTWWEYSWDIMEPVTYFITYGSAMAMYAYFVMTRQEYVYPEARDRQYLLFFHKGAKKSRFDLEKYNQLKDAIAQAEMDLKRLRDPLQVHLPLRQIGEKD
# Variants of: B1
# Assay: co-immunoprecipitation (anti-Myc IP, immunoblot quantification)
# Conditions: with MCU (mitochondrial Ca2+ uniporter), c-Myc-tagged MIRO1 constructs expressed in HEK cells for 24 h, n = 6 independent experiments, parent: 0.26, read off a plot
row,response [AU],Variant
1,0.065,chain 1 E208K E328K
2,0.36,chain 1 S432N
